Source: article PMC12673853, “Impaired nick recognition and ligation efficiency by LIG1 K845N variant linked to Huntington’s disease”
Changes are numbered by the printed parent chain.

Key:
[1] = target: T1, LIG1 wild-type (Cy5-labelled) (human, UniProt P18858 1-919); assay: single-molecule TIRF co-localization; tbound 7.0 ± 0.9 s and 0.7 ± 0.1 s; tunbound 61 ± 2 s; 1 nM LIG1; TIRF: 1 mM HEPES pH 7.4, 20 mM NaCl, 0.02% BSA, 0.002% Tween 20, oxygen scavenger (44 mM glucose, glucose oxidase, catalase), 10 mM Trolox, 1 nM LIG1-Cy5, room; settings: protein: recombinant; tags: 6xHis; Cy5 (NHS ester); label: 5'-biotin on S15; 3'-AF488 on S18; blunt 34-bp duplex with one nick between S15 and S18; 3'-A opposite T at nick
T1 sequence (P18858 whole entry): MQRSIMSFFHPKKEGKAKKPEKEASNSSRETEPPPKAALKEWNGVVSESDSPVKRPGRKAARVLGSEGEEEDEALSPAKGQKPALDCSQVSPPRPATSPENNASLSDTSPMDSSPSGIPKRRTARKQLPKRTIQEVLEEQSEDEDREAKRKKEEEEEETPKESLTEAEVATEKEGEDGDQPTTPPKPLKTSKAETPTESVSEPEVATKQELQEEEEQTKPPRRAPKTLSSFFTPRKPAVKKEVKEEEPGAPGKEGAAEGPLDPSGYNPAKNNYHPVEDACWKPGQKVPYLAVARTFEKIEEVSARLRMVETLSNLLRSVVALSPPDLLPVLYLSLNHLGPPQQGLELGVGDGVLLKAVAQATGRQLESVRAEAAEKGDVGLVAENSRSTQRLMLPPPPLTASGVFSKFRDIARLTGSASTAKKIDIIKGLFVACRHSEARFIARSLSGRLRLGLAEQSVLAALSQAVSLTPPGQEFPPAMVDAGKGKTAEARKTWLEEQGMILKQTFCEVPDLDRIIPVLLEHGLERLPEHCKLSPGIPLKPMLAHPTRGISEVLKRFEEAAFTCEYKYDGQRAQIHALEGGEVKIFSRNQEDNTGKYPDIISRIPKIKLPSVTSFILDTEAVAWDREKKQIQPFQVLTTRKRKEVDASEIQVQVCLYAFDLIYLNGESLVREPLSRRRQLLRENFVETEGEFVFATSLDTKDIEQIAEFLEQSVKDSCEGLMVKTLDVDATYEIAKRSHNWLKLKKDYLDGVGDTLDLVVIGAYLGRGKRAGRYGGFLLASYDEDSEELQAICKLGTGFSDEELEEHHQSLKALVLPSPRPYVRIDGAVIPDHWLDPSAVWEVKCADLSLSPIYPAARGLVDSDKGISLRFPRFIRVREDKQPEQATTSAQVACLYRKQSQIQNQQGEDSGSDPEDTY

[2] = target: T1, LIG1 wild-type (Cy5-labelled); assay: single-molecule TIRF co-localization; tunbound 79 ± 5 s; 1 nM LIG1; TIRF: 1 mM HEPES pH 7.4, 20 mM NaCl, 0.02% BSA, 0.002% Tween 20, oxygen scavenger (44 mM glucose, glucose oxidase, catalase), 10 mM Trolox, 1 nM LIG1-Cy5, room; settings: protein: recombinant; tags: 6xHis; Cy5 (NHS ester); label: 5'-biotin on strand 1; 3'-AF488 on S18; blunt 34-bp duplex with one nick between strand 1 and S18; 3'-8oxoG opposite A at nick
[3] = target: LIG1 K845N (Cy5-labelled) (human, UniProt P18858 1-919, K845N); assay: single-molecule TIRF co-localization; long tbound 4 ± 0.7 s; tunbound 113 ± 8 s; similar to its nick binding, mostly nonspecific; 1 nM LIG1; TIRF: 1 mM HEPES pH 7.4, 20 mM NaCl, 0.02% BSA, 0.002% Tween 20, oxygen scavenger (44 mM glucose, glucose oxidase, catalase), 10 mM Trolox, 1 nM LIG1-Cy5, room; settings: protein: recombinant; tags: 6xHis; Cy5 (NHS ester); label: 5'-biotin and 3'-AF488 on S1; blunt, no nick
Sequence of LIG1 K845N (Cy5-labelled) (P18858 whole entry K845N): as the sequence (P18858 whole entry) above, with K845N counted along it

B1: nick A:T (dsDNA)
DNA 1: CATGGGCGGCATGAACCA
DNA 2: GAGGCCCATCCTCACC
DNA 3: GGTGAGGATGGGCCTCTGGTTCATGCCGCCCATG
modifications: 5'-phosphate on S18 at nick
- binding result [1]: binds

B2: nick 8oxoG:A (dsDNA)
DNA 1: CATGGGCGGCATGAACCG
DNA 2: GAGGCCCATCCTCACC
DNA 3: B1 DNA 3 with T17A
modifications: 8-oxo-dG at position 18 of strand 1; 5'-phosphate on S18 at nick
- binding result [2]: binds

B3: no-nick dsDNA (dsDNA)
DNA 1: CATGGGCGGCATGAACCAGAGGCCCATCCTCACC
DNA 2: B1 DNA 3
- binding result [3]: binds
